How the values were obtained:
[1] = molecular target: human EGFR.Fc (extracellular domain of EGFR) (human) (UniProt P00533); assay: SPR
[2] = molecular target: human HER2.Fc (extracellular domain of HER2) (human) (UniProt P04626); assay: SPR

Kd [1] [nM]	koff [1] [s⁻¹]	kon [1] [M⁻¹ s⁻¹]	Kd [2] [nM]	koff [2] [s⁻¹]	kon [2] [M⁻¹ s⁻¹]	Substance
7.06	0.000666	94300				Z_(EGFR:1907) (designed binder)
			0.0109	1.14e-07	10400	Z_(HER2:342).BirA* (designed binder)
			0.076	0.000111	1.45e+06	Z_(HER2:342) (designed binder)

Reference: publication PMC9890520
